According to publication PMC314469, “Protein Interaction Networks by Proteome Peptide Scanning” (PLoS Biology, 2004):

B1: Q9NP57 254-267 (peptide)
chain: EPPAPRRPASLAQR
B2: Q93062 39-52 (peptide)
chain: ELYLLFRPFKGYEG
B3: Q9NSY0 103-117 (peptide)
chain: ELPRPRRPPLQWRY
B4: Q9ULV5 88-101 (peptide)
chain: EQGGLLRPERDHVE
B5: O95954 457-471 (peptide)
chain: EPGLPVRPPGGGQS
B6: O43301 404-417 (peptide)
chain: EQFKIKRPAAWVDL
B7: Q9H224 58-71 (peptide)
chain: AGPRLPRPPREGST
B8: P22460 83-97 (peptide)
chain: ELPRPRRPPPEDEE
B9: Q9Y215 121-134 (peptide)
chain: EKGELGRPGRKGRP
B10: Q9H7I0 90-104 (peptide)
chain: EMEPPPKPPRSSSA
B11: Q03111 455-469 (peptide)
chain: EPPPPQKPPPPNSK
B12: Q9H9V7 590-603 (peptide)
chain: EKPKLRRPSDRSNG
B13: Q14333 377-390 (peptide)
chain: AGPRPRRPGSLPGW
B14: Q9Y403 100-113 (peptide)
chain: EKPILDRPTRISQP
B15: Q9UM03 505-519 (peptide)
chain: EMTPPPKPPRLYLP
B16: Q9HCF0 45-58 (peptide)
chain: ELTIIERPVRRSLK
B17: Q9Y334 62-76 (peptide)
chain: EQPPPGRPPLRLED
B18: O00485 108-122 (peptide)
chain: ELHVPIRPPRPSSP
B19: Q9NVW8 327-340 (peptide)
chain: EKIPFERPFRRPNA
B20: O15021 1020-1033 (peptide)
chain: EQGSLKRPVSRKVG
B21: Q16584 619-632 (peptide)
chain: EPEEPKRPVPAERG
B22: Q15047 309-322 (peptide)
chain: ELYPISRPLKKTWE
B23: Q9NR92 11-24 (peptide)
chain: ENDNIERPVRRRHS
B24: Q92610 35-49 (peptide)
chain: ENESPLKPPGISMD
B25: P42858 194-207 (peptide)
chain: ELAHLVRPQKSRPY
B26: P52849 60-74 (peptide)
chain: AGPGPARPPVPPRP
B27: Q08050 469-482 (peptide)
chain: EMPHLARPIKVESP
B28: Q9P2K1 987-1000 (peptide)
chain: EQKRPLRPRRKGRK
B29: Q96PC8 10-23 (peptide)
chain: EQRPLKRPRLGPPD
B30: Q9NZQ6 1526-1539 (peptide)
chain: ELEQLRRPPGTAER
B31: Q9NSC3 29-42 (peptide)
chain: EKGQPSRPTKSKDA

Target: endophilin SH3 (SH3G2_HUMAN), Q99962
Test: SPOT array

Row | Binder | normalised SPOT signal, Boehringer light units (BLU); mean over the file's lines of this peptide
1 | B1 | 831
2 | B2 | 178
3 | B3 | 5930
4 | B4 | 66.9
5 | B5 | 59.4
6 | B6 | 0
7 | B7 | 1130
8 | B8 | 36.9
9 | B9 | 164
10 | B10 | 298
11 | B11 | 2240
12 | B12 | 80.5
13 | B13 | 805
14 | B14 | 0.6
15 | B15 | 601
16 | B16 | 61.6

Row | Binder | normalised SPOT signal, Boehringer light units (BLU); mean over the file's lines of this peptide
17 | B17 | 92.4
18 | B18 | 3980
19 | B19 | 123
20 | B20 | 86.4
21 | B21 | 40.1
22 | B22 | -0
23 | B23 | 59.3
24 | B24 | 22.2
25 | B25 | 86.2
26 | B26 | 3370
27 | B27 | 158
28 | B28 | 1010
29 | B29 | 446
30 | B30 | 126
31 | B31 | 143

Target: T1, amphyphisin SH3 (AMPH_HUMAN), P49418
T1 chain: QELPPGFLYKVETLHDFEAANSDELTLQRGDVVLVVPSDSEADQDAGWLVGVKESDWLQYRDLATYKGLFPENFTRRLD
Test: SPOT array

Row | Binder | normalised SPOT signal, Boehringer light units (BLU); mean over the file's lines of this peptide
32 | B1 | 37.1
33 | B2 | 129
34 | B3 | 1080
35 | B4 | 79.3
36 | B5 | 374
37 | B6 | 4.3
38 | B7 | 2230
39 | B8 | 40
40 | B9 | 103
41 | B10 | 4690
42 | B11 | 44.4
43 | B12 | 10.1
44 | B13 | 203
45 | B14 | 57.1
46 | B15 | 1820
47 | B16 | 700

Row | Binder | normalised SPOT signal, Boehringer light units (BLU); mean over the file's lines of this peptide
48 | B17 | 33.6
49 | B18 | 12300
50 | B19 | 948
51 | B20 | 47.3
52 | B21 | 104
53 | B22 | -0
54 | B23 | 88.7
55 | B24 | 50.4
56 | B25 | 166
57 | B26 | 5580
58 | B27 | 145
59 | B28 | 11900
60 | B29 | 31
61 | B30 | 15.8
62 | B31 | 82.2
